Data from patent publication US20080113421A1, “Stabilizing proteins against denaturation and inactivation by charged detergents using chemical modifications, including modifications that increase net charge” (President and Fellows of Harvard College, priority 2006, published 2008).

How the values were obtained:
Format in all cases: physicochemical
[1] = Dynamic light scattering, hydrodynamic radius
Procedure: Dynamic light scattering (DLS) measurements were performed on a DynaPro light scattering device (Wyatt Technology Corp.), at protein concentrations of […].
Dynamic light scattering was also used to measure the sizes of the folded and unfolded protein and of the presumably aggregated sample. The hydrodynamic radius of the native BCA (2.7±0.7 nm), and of BCA, refolded in 0.1 mM SDS (2.6±0.6 nm), were measured. BCA was denatured in 10 mM SDS, and diluted to 1.8 mM SDS, a concentration at which no refoldings were observed immediately before the measurement. […] The small increase in the hydrodynamic radius of the incubated sample is indicative of the formation of low-order aggregates (e.g., dimers or trimers), but the resolution of DLS measurements was not sufficient to observe each species individually.

[2] = Refolding after 1 week incubation at intermediate SDS concentrations (aggregation test); conditions: denatured in 10 mM SDS, incubated 1 week at intermediate SDS, diluted into 0.1 mM SDS
Procedure: Aggregation was tested by renaturing the proteins from a denatured state at 10 mM SDS to 0.1 mM SDS, but through an incubation step at intermediate concentrations of SDS, instead of renaturing by rapid dilution from 10 mM SDS to 0.1 mM SDS directly (i.e., 10 mM SDS→2.5 mM SDS→0.1 mM SDS instead of 10 mM SDS→0.1 mM SDS). For incubation, concentrations of SDS were chosen in which aggregation was believed to occur on a similar or shorter time scale as refolding. The protein-SDS complex was diluted from 10 mM SDS to 2.5-0.7 mM SDS, the proteins were incubated for 1 week at those concentrations, and the samples further diluted to 0.1 mM SDS to initiate fast refolding.
The fluorescence signal from DNSA was normalized to that of refolded protein by rapid dilution from 10 to 0.1 mM SDS.

[3] = Denaturation of BCA charge ladders in 3 mM SDS (dialysis cassette) followed by capillary electrophoresis, with transition-state model fit
Procedure: Denaturation experiments were performed as follows. A charge ladder of BCA (BCA-Acn or BCA-Hexn, 1 mL of 100 micromolar total protein in Tris-Gly buffer) was placed in a dialysis cassette (MW cutoff of 10 kDa). The dialysis cassette was placed in a 1 L bath of 3 mM SDS in Tris-Gly buffer at room temperature. The buffer was changed every 24 h. At regular intervals of time (approximately every half-hour), 100 microliters of the protein solution was removed from the dialysis cassette; ˜7 microliters of that aliquot was diluted 10-fold and the absorbance of the diluted sample at 280 nm (ε280,BcA=57,000 M^−1 cm^−1, the absorption cross section can be assumed to be is unchanged by acylation) was measured to determine the total protein concentration. The aliquot was diluted because the absorbance of the 100 micromolar solution was too high to be read accurately by the ultraviolet spectrometer. This diluted aliquot was discarded. The remainder of the solution was then run on CE. The protein solution, except for the portion diluted for ultraviolet measurement, was returned to the dialysis cassette; the aliquot was outside of the dialysis cassette for ˜5 min.
Capillary electrophoresis experiments were carried out in a Beckman (Fullerton, Calif.) PACE-MDQ system, using a capillary of inner diameter of 50 micrometers of total length of 110.2 cm, 100 cm to the detector. Tris-Gly in D2O was used as the running buffer, and the applied voltage was 30 kV. D2O was used in place of H2O for the electrophoresis buffer because the viscosity of D2O is higher than that of H2O and the higher viscosity minimizes diffusion. Samples were injected using pressure (20 psi) for 30 s. Each sample contained 0.65 mM dimethylformamide as an electrically neutral marker for electroosmotic flow.
The CMC of SDS in the Tris-Gly buffer used in this example was 4.3 mM. 3 mM SDS was chosen for these experiments because this concentration of SDS denatured BCA in an interval of time that was convenient for experimental work using CE. In addition, this concentration of SDS was close to the concentration often used in SDS-PAGE (0.1% or 3.5 mM). 1 mL of a solution of ˜100 micromolar of a charge ladder of BCA, dissolved in Tris-Gly buffer, was placed into a dialysis cassette (molecular weight cutoff of 10 kDa) and the cassette placed in 1 L of Tris-Gly buffer containing 3 mM SDS. The bath was kept at room temperature (˜22° C.) for the duration of the experiment.
At regular intervals of time (approximately every half hour), 100-microliter aliquots of the solutions containing the charge ladder of BCA were removed from the cassette in a bath of 3 mM SDS in Tris-Gly buffer, the total protein concentration in the aliquot was measured using absorbance at 280 nm, and a portion (˜10 nL) of the aliquot injected onto the CE. The unused portions of the aliquots were then returned to the cassette.
Residence time in the detection volume was determined as follows. […] If two proteins with the same absorptivity were present in a sample in equal concentrations, the protein of lower velocity would have a larger measured peak area than the protein of higher velocity. To correct for this experimental bias, the area of each peak was multiplied-by the velocity of the protein (Acorr=Ameasured×LD/tD), where LD is the length of the capillary from the end (where injection occurs) to the detector (100 cm in all of these experiments) and tD is the time it takes for the rung to reach the detector.
Initial differences in concentrations of each rung were as follows. The areas of each of the rungs in the charge ladder were not all equal before denaturation. To measure the fraction of each rung that has denatured at each time, the velocity-corrected area of each rung in the sample was divided by the velocity-corrected area of that rung in the charge ladder run in the absence of SDS.
A comparison of the rates of denaturation follows. […]

## bovine carbonic anhydrase II [BCA]
[1]; denatured in 10 mM SDS, diluted to 1.8 mM SDS immediately before measurement
  hydrodynamic radius: 2.9±0.6 nm
[1]; denatured, incubated in 1.8 mM SDS for one week
  hydrodynamic radius: 3.6±0.9 nm
[1]; native protein
  hydrodynamic radius: 2.7±0.7 nm
[1]; refolded in 0.1 mM SDS
  hydrodynamic radius: 2.6±0.6 nm
[2]
  t1/2 for refolding: 10.8 ± 0.6 min
[3]; 3 mM SDS, room temperature, assumes νκTST=10^6 s^−1
  ΔG‡ of denaturation (a coefficient): 58.6 ± 4.2 kJ/mol
[3]; model, assuming a radius of BCA of 2 nm
  radius of the transition state RTS: 2.1 nm
